Experimental data reported in paper PMC4125234.

Target: CMG2-Fc fusion protein (capillary morphogenesis protein 2 amino acids 1-225 fused to the Fc fragment of human IgG1) (human) (UniProt P58335)
Experiment: BLI

UniProt P58335, sequence (P58335 34-225): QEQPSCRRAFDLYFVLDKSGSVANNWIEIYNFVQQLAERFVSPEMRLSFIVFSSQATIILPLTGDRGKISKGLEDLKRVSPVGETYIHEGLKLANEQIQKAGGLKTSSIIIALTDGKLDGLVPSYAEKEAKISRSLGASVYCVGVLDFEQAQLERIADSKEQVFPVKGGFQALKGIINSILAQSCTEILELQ

“protective antigen (PA) of anthrax toxin (natural protein)” showed a Kd of 0.84 nM, a koff of 9.7e-06 s⁻¹ and a kon of 11500 M⁻¹ s⁻¹.
